These binders were tested against T1, human GPRC5D (human, UniProt Q9NZD1 1-345) (assay: cell-based or functional assay).
T1 sequence (Q9NZD1 whole entry): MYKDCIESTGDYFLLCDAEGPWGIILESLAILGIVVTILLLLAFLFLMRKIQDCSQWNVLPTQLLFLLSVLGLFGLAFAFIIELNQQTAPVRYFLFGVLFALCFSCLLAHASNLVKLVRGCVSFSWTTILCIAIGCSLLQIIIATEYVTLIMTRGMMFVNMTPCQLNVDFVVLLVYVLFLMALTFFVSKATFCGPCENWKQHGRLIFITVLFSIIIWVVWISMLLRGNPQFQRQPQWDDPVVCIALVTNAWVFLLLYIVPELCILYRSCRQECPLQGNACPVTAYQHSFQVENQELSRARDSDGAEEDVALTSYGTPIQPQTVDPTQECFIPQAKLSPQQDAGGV

Row | Binder | EC50 of in vitro killing, AMO-1 | EC50 of in vitro killing, EJM | EC50 of in vitro killing, L363 | EC50 of in vitro killing, MOLP-2 | EC50 of in vitro killing, NCI-H929 | EC50 of in vitro killing, OPM-2 | EC50 of in vitro killing, RPMI
1 | 10B10-TCB (bispecific antibody, human IgG1, kappa, L234A L235A) light 1: DIQLTQSPHSLSASLGETVSIECLASEGISNYLAWFHQKPGKSPQLLIYYASSLQDGVPSRFSGSGSGTQYSLKISNMQPEDEGVYYCQQGYKYPLTFGSGTKLEIKRTVAAPSVFIFPPSDRKLKSGTASVVCLLNNFYPREAKVQWKVDNALQSGNSQESVTEQDSKDSTYSLSSTLTLSKADYEKHKVYACEVTHQGLSSPVTKSFNRGEC light 2: EVQLLESGGGLVQPGGSLRLSCAASGFTFSTYAMNWVRQAPGKGLEWVSRIRSKYNNYATYYADSVKGRFTISRDDSKNTLYLQMNSLRAEDTAVYYCVRHGNFGNSYVSWFAYWGQGTLVTVSSASVAAPSVFIFPPSDEQLKSGTASVVCLLNNFYPREAKVQWKVDNALQSGNSQESVTEQDSKDSTYSLSSTLTLSKADYEKHKVYACEVTHQGLSSPVTKSFNRGEC heavy 1: EVQLVESGGGLVQPGRSMKLSCAASGFTFTNFYMAWVRQAPTKALEWVASINTGGGYTYYRDSVKGRFTVSRDNTRSTLYLQMDSLRSEETATYYCARHLTYYGRYYYFDYWGQGVMVTVSSASTKGPSVFPLAPSSKSTSGGTAALGCLVEDYFPEPVTVSWNSGALTSGVHTFPAVLQSSGLYSLSSVVTVPSSSLGTQTYICNVNHKPSNTKVDEKVEPKSCDKTHTCPPCPAPEAAGGPSVFLFPPKPKDTLMISRTPEVTCVVVDVSHEDPEVKFNWYVDGVEVHNAKTKPREEQYNSTYRVVSVLTVLHQDWLNGKEYKCKVSNKALGAPIEKTISKAKGQPREPQVCTLPPSRDELTKNQVSLSCAVKGFYPSDIAVEWESNGQPENNYKTTPPVLDSDGSFFLVSKLTVDKSRWQQGNVFSCSVMHEALHNHYTQKSLSLSPGK heavy 2: not shown | 0.084 nM | 0.079 nM | 0.034 nM | 0.16 nM | 0.056 nM | 0.028 nM | 0.965 nM
2 | B72-TCB (bispecific antibody, human IgG1, kappa, L234A L235A) heavy 1: not shown light 1: EVQLVESGGGLVQPGGSLRLSCAASGFTFNTYAMNWVRQAPGKGLEWVARIRSKYNNYATYYAASVKGRFTISRDDSKNSLYLQMNSLKTEDTAVYYCARHGNFGNSYVSWFAYWGQGTLVTVSSASVAAPSVFIFPPSDEQLKSGTASVVCLLNNFYPREAKVQWKVDNALQSGNSQESVTEQDSKDSTYSLSSTLTLSKADYEKHKVYACEVTHQGLSSPVTKSFNRGEC heavy 2: QVQLVQSGAEVKKPGASVKVSCKASGYSFTGYTMNWVRQAPGQGLEWMGLINPYNSDTNYAQKLQGRVTMTTDTSTSTAYMELRSLRSDDTAVYYCARVALRVALDYWGQGTLVTVSSASTKGPSVFPLAPSSKSTSGGTAALGCLVEDYFPEPVTVSWNSGALTSGVHTFPAVLQSSGLYSLSSVVTVPSSSLGTQTYICNVNHKPSNTKVDEKVEPKSCDKTHTCPPCPAPEAAGGPSVFLFPPKPKDTLMISRTPEVTCVVVDVSHEDPEVKFNWYVDGVEVHNAKTKPREEQYNSTYRVVSVLTVLHQDWLNGKEYKCKVSNKALGAPIEKTISKAKGQPREPQVCTLPPSRDELTKNQVSLSCAVKGFYPSDIAVEWESNGQPENNYKTTPPVLDSDGSFFLVSKLTVDKSRWQQGNVFSCSVMHEALHNHYTQKSLSLSPGK light 2: DIQMTQSPSSLSASVGDRVTITCKASQNVATHVGWYQQKPGKAPKRLIYSASYRYSGVPSRFSGSGSGTEFTLTISNLQPEDFATYYCQQYNRYPYTFGQGTKLEIKRTVAAPSVFIFPPSDRKLKSGTASVVCLLNNFYPREAKVQWKVDNALQSGNSQESVTEQDSKDSTYSLSSTLTLSKADYEKHKVYACEVTHQGLSSPVTKSFNRGEC | 0.109 nM | 0.06 nM | 0.058 nM | 0.124 nM | 0.058 nM | 0.171 nM | 0.193 nM

Target: T1, human GPRC5D
Assay: cell-based or functional assay
Remark: another data set of the same source

Row | Binder | CAR-J2 EC50
3 | P1AE5706 (antibody, V domains shown) VH: ELQLEQSGGGLVQPGGSLTLSCAASGFTFSKYAMAWVRQAPTKGLEWVASISTGGVNTYYRDSVKARFTISRDNAKNTQYLQMDSLRSEDTATYYCATHTGDYFDYWGQGVMVTVSS VL: DIVLTQSPALAVSPGQRATISCRASQSVSISGINLMNWYQQKPGQQPKLLIYHASILASGIPTRFSGSGSGTDFTLTIDPVQADDIATYYCQQTRESPLTFGSGTNLEIK | 0.0039 µg/mL
4 | P1AE5707 (antibody, V domains shown) VH: EVQLLESGGGLVQPGGSLRLSCAASGFTFSKYAMAWVRQAPGKGLEWVASISTGGVNTYYRDSVKARFTISRDNSKNTLYLQMNSLRAEDTAVYYCATHTGDYFDYWGQGTMVTVSS VL: DIVMTQSPDSLAVSLGERATINCRASQSVSISGINLMNWYQQKPGQQPKLLIYHASILASGVPDRFSGSGSGTDFTLTISSLQAEDVAVYYCQQTRESPLTFGQGTRLEIK | 0.0424 µg/mL
5 | P1AE5714 (antibody, V domains shown) VH: ELQLLESGGGLVQPGGSLRLSCAASGFTFSKYAMAWVRQAPGKGLEWVASISTGGVNTYYRDSVKARFTISRDNAKNTLYLQMNSLRAEDTAVYYCATHTGDYFDYWGQGTMVTVSS VL: DIVMTQSPDSLAVSLGERATINCRASQSVSISGINLMNWYQQKPGQQPKLLIYHASILASGVPDRFSGSGSGTDFTLTISSLQAEDVAVYYCQQTRESPLTFGQGTRLEIK | 0.0055 µg/mL
6 | P1AE5713 (antibody, V domains shown) VH: EVQLLESGGGLVQPGGSLRLSCAASGFTFSKYAMAWVRQAPGKGLEWVASISTGGVNTYYRDSVKARFTISRDNSKNTLYLQMNSLRAEDTAVYYCATHTGDYFDYWGQGTMVTVSS VL: DIQMTQSPSSLSASVGDRVTITCRASQSVSISGINLMNWYQQKPGQQPKLLIYHASILASGVPSRFSGSGSGTDFTLTISSLQPEDFATYYCQQTRESPLTFGQGTRLEIK | 0.0769 µg/mL
7 | P1AE5708 (antibody, V domains shown) VH: EVQLLESGGGLVQPGGSLRLSCAASGFTFSKYAMAWVRQAPGKGLEWVASISTGGVNTYYRDSVKARFTISRDNSKNTLYLQMNSLRAEDTAVYYCATHTGDYFDYWGQGTMVTVSS VL: DIVMTQSPDSLAVSLGERATINCKSSQSVSISGINLMNWYQQKPGQQPKLLIYHASILASGVPDRFSGSGSGTDFTLTISSLQAEDVAVYYCQQTRESPLTFGQGTRLEIK | 0.456 µg/mL

Target: T1, human GPRC5D
Assay: cell-based or functional assay
Remark: another data set of the same source

Row | Binder | CAR-J2 EC50
8 | P1AE5733 (antibody, V domains shown) VH: EVQLVESGGGLVQPGRSLKLSCAASGFSFSNYGMAWVRQAATKGLEWVASISTGGGNTYYRDSVKGRFIVSRDNAKNTQYLQMDSLRSEDTATYYCTRHDRGGLYWGQGVMVTVSS VL: DIVMTQAPLSVSVTPGESASISCRSSKSLLHSNGITYVYWYFQKPGKSPQVLIYRMSNLASGVPDRFSGSGSETDFTLKISRVEAEDVGIYHCGQLLENPYTFGAGTELELK | 0.00265 µg/mL
9 | P1AE5743 (antibody, V domains shown) VH: EVQLVESGGGVVQPGRSLRLSCAASGFSFSNYGMAWVRQAPGKGLEWVASISTGGGNTYYRDSVKGRFTISRDNAKNTLYLQMNSLRAEDTAVYYCTRHDRGGLYWGQGTMVTVSS VL: EIVLTQSPGTLSLSPGERATLSCRASKSLLHSNGITYVYWYQQKPGQAPRLLIYRMSNLASGIPDRFSGSGSGTDFTLTISRLEPEDFAVYHCGQLLENPYTFGQGTKLEIK | 0.583 µg/mL

Results, then the binder that gave them:

Row | CAR-J2 EC50 | Binder
10 | 0.19 µg/mL | P1AE5758 (antibody, V domains shown) VH: EVQLVESGGGLVQPGGSLRLSCAASGFSFSNYGMAWVRQAPGKGLEWVASISTGGGNTYYRDSVKGRFTISRDNAKNTLYLQMNSLRAEDTAVYYCTRHDRGGLYWGQGTMVTVSS VL: DIVMTQSPDSLAVSLGERATINCKSSKSLLHSNGITYVYWYQQKPGQPPKLLIYRMSNLASGVPDRFSGSGSGTDFTLTISSLQAEDVAVYHCGQLLENPYTFGQGTKLEIK
11 | 0.00889 µg/mL | P1AE5754 (antibody, V domains shown) VH: EVQLVESGGGVVQPGRSLRLSCAASGFSFSNYGMAWVRQAPGKGLEWVASISTGGGNTYYADSVKGRFTISRDNAKNTLYLQMNSLRAEDTAVYYCTRHDRGGLYWGQGTMVTVSS VL: EIVLTQSPGTLSLSPGERATLSCRASKSLLHSNGITYVYWYQQKPGQAPRLLIYRMSNLASGIPDRFSGSGSGTDFTLTISRLEPEDFAVYHCGQLLENPYTFGQGTKLEIK
12 | 0.397 µg/mL | P1AE5738 (antibody, V domains shown) VH: QVQLVESGGGVVQPGRSLRLSCAASGFSFSNYGMAWVRQAPGKGLEWVASISTGGGNTYYRDSVKGRFTISRDNSKNTLYLQMNSLRAEDTAVYYCTRHDRGGLYWGQGTMVTVSS VL: EIVLTQSPGTLSLSPGERATLSCRASKSLLHSNGITYVYWYQQKPGQAPRLLIYRMSNLASGIPDRFSGSGSGTDFTLTISRLEPEDFAVYHCGQLLENPYTFGQGTKLEIK
13 | 0.0826 µg/mL | P1AE5749 (antibody, V domains shown) VH: QVQLVESGGGVVQPGRSLRLSCAASGFSFSNYGMAWVRQAPGKGLEWVASISTGGGNTYYADSVKGRFTISRDNSKNTLYLQMNSLRAEDTAVYYCTRHDRGGLYWGQGTMVTVSS VL: EIVLTQSPGTLSLSPGERATLSCRASKSLLHSNGITYVYWYQQKPGQAPRLLIYRMSNLASGIPDRFSGSGSGTDFTLTISRLEPEDFAVYHCGQLLENPYTFGQGTKLEIK
14 | 0.00547 µg/mL | P1AE5763 (antibody, V domains shown) VH: EVQLVESGGGLVQPGGSLRLSCAASGFSFSNYGMAWVRQAPGKGLEWVASISTGGGNTYYADSVKGRFTISRDNAKNTLYLQMNSLRAEDTAVYYCTRHDRGGLYWGQGTMVTVSS VL: DIVMTQSPDSLAVSLGERATINCKSSKSLLHSNGITYVYWYQQKPGQPPKLLIYRMSNLASGVPDRFSGSGSGTDFTLTISSLQAEDVAVYHCGQLLENPYTFGQGTKLEIK
15 | 0.0157 µg/mL | P1AE5759 (antibody, V domains shown) VH: EVQLVESGGGLVQPGGSLRLSCAASGFSFSNYGMAWVRQAPGKGLEWVASISTGGGNTYYRDSVKGRFTISRDNAKNTLYLQMNSLRAEDTAVYYCTRHDRGGLYWGQGTMVTVSS VL: EIVLTQSPGTLSLSPGERATLSCRASKSLLHSNGITYVYWYQQKPGQAPRLLIYRMSNLASGIPDRFSGSGSGTDFTLTISRLEPEDFAVYHCGQLLENPYTFGQGTKLEIK
16 | 0.0782 µg/mL | P1AE5764 (antibody, V domains shown) VH: EVQLVESGGGLVQPGGSLRLSCAASGFSFSNYGMAWVRQAPGKGLEWVASISTGGGNTYYADSVKGRFTISRDNAKNTLYLQMNSLRAEDTAVYYCTRHDRGGLYWGQGTMVTVSS VL: EIVLTQSPGTLSLSPGERATLSCRASKSLLHSNGITYVYWYQQKPGQAPRLLIYRMSNLASGIPDRFSGSGSGTDFTLTISRLEPEDFAVYHCGQLLENPYTFGQGTKLEIK

Source: patent US20220411491A1 (Hoffmann-La Roche, published 2022)
